Reference: US20020151680A1 (VEGENICS, published 2002)

T1: VEGFR-3-Fc (UniProt P35916 25-329)
T1 construct: domain: first three Ig domains; used as conditioned supernatant of 293T cells; also called VEGFR-3-Fc fusion protein; not shown: Fc fragment of the pIg vector
T1 sequence (looked up): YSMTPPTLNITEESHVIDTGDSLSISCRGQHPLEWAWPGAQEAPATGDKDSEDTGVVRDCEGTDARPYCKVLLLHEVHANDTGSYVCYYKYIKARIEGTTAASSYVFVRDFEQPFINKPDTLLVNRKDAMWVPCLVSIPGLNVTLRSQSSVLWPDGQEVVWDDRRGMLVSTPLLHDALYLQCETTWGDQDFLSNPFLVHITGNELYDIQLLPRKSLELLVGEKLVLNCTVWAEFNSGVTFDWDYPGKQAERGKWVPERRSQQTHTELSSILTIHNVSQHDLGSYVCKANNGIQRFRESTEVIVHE


Key:
Experiment in all cases: 35S IP, receptor-Fc
[1] = target: T1, VEGFR-3-Fc
Experimental: (§1) The binding assay procedure was identical to the immunoprecipitation using pentahistidine antibody described in Example 2, apart from the composition of the immunoprecipitation (IP) mixes. The IP mixes used for the receptor binding analysis were as follows: For VEGFR- 1 binding assays, the IP mix was phosphate buffered saline (PBS) containing 1.5% BSA, 0.06% Tween 20, 3 μg/ml heparin and 400 ng/ml VEGFR-1 -Fc fusion protein (100 μl of this IP mix was added to 200 μl of sample supernatant); for VEGFR-2 binding assays, the IP mix was 82% conditioned cell supernatant from 293T cells transiently expressing VEGFR-2-Fc fusion protein in mixture with 18% of a PBS solution that contained 5% BSA, 0.2% Tween 20, and 10 μg/ml heparin (250 μl of IP mix was added to 200 μl of sample supernatant); and for VEGFR-3 binding assays, the IP mix was 82% conditioned cell supernatant from 293T cells transiently expressing VEGFR-3-Fc fusion protein, 18% of PBS containing 5% BSA, 0.2% Tween 20, and 10 μg/ml heparin (250 μl of IP mix was added to 200 μl of sample supernatant).

[2] = target: T2, VEGFR-2-Fc (UniProt P35968 24-326)
T2 construct: domain: first 3 Ig domains; used as conditioned supernatant of 293T cells; also called VEGFR-2-Fc fusion protein; not shown: Fc fragment of the pIg vector
Experimental: as §1

[3] = target: T3, VEGFR-1-Fc (UniProt P17948 27-331)
T3 construct: domain: first three Ig domains; expressed in Drosophila S2 cells, purified on Protein A sepharose; also called VEGFR-1-Fc fusion protein; not shown: Fc fragment from the Signal-pIgPlus vector
Experimental: as §1

T3 sequence (P17948 27-331): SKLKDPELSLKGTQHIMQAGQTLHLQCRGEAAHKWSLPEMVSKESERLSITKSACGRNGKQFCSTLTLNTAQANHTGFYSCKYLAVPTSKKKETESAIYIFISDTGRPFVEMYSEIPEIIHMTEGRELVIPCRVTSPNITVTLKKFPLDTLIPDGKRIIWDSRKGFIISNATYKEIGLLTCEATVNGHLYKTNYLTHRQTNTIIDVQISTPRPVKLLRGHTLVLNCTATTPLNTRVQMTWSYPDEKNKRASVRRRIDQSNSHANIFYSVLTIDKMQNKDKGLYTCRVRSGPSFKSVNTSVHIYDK
T2 sequence (P35968 24-326): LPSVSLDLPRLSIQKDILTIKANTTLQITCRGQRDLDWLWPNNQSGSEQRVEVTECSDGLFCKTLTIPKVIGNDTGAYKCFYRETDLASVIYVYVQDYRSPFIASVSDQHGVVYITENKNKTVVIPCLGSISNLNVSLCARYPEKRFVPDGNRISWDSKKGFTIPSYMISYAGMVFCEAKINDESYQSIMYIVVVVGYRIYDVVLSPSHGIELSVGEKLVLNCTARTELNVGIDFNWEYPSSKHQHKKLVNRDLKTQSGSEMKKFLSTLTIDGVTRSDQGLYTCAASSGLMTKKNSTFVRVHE

Row | Binder | binding result [1] | binding result [2] | binding result [3]
1 | 31-1 (ligand) GQNHHEVVKSIDNEWRKTQCMPIETLVDIFQEYPDEIEYIFKPSCVPLMRCGGCCNDEGLECVPTEESNITMQIMRIKPHQGQHIGEMSFLQHNKCECRPKKDLVFEQKLISEEDLNSAVDHHHHHH | no binding | no binding | no binding
2 | 31-6 (ligand) GQNHHEVVKSIDNEWRKTQCMPIETLVDIFQEYPDEIEYIFKPSCVPLMRCGGCCNDEGLECMNTSTSYLSKTLFEIKPHQGQHIGEMSFANHTSCRCMSKLDLVFEQKLISEEDLNSAVDHHHHHH | no binding | no binding | no binding
3 | 12-16 (ligand) GQNHHEVVKFMDVYQRSYCHPIETLVDIFQEFGVATNTFFKPPCVSVYRCGLLQ |  | no binding | no binding
4 | 31-11 (ligand) GQNHHEVVKSIDNEWRKTQCMPIETLVDIFQEYPDEIEYIFKPSCVPLMRCGGCCNSEGLQCVPTEESNITMQIMRITVPLSQGPKPVTISFLQHNKCECRPKKDLVFEQKLISEEDLNSAVDHHHHHH | no binding | no binding | no binding
